US20090028881A1 (ROCHE PALO ALTO, published 2009)

Target: T1, human CCR5 (wild-type) (human, UniProt P51681 1-352)
T1 construct: also called wild-type CCR5
Experiment: alanine scanning epitope mapping
Text: Epitope binding is investigated by using alanine scanning according to the method described by W. C. Olson et al. (J. Virol. (1999) 73:4145-55) for epitope mapping. […] 100% epitope binding is defined for wild-type CCR5. A further preferred anti-CCR5 antibody binds to the same epitope as antibody C binds.

T1 sequence (P51681 whole entry): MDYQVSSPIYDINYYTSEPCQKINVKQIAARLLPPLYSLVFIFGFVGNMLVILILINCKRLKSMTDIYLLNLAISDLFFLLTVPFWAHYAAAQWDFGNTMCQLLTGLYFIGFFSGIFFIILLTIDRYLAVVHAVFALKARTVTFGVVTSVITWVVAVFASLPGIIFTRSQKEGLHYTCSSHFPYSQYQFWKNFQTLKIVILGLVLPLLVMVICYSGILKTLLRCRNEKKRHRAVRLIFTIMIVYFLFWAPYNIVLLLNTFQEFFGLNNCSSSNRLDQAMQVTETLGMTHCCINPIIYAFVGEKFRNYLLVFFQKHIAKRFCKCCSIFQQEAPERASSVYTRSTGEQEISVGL

B1: <CCR5>Pz03.1C5 (antibody, V domains shown)
VH: QVQLKQSGPGLVRPSQSLSITCTVSGFPLGIFGVHWVRQSPGKGLEWLGVIWKGGNTDYNAAFMSRLRITKDNSKSQVFFRMNSLQTDDTAIYYCAKVNLADAMDYWGQGTSVIVSS
VL: DIQMTQSPASLSASVGETVTITCRASGNIHGYLAWFQQKQGKSPQLLVYNTKTLAEGVPSRFSGSGSGTQFSLKINSLQPEDFGNYYCQHHYDLPRTFGGGTKLEIKR
notes: also called Antibody C; m<CCR5>Pz03.1C5
binding result: binds
